Experimental data from publication PMC13545989.
Values belong to the molecule of their own block, whether it stands above or below them.

Tests used:
[1] = target: TRAK1/mScarlet fusion protein (wild type) (UniProt Q9UPV9); assay: co-IP; FLAG purification of Miro1/FP/FLAG/I3-01 synthetic cargo from hTERT RPE-1 cell lines co-expressing TRAK/mScarlet variants; immunoblot of the associated motor-adaptor components (kinesin, dynein, dynactin); also done after kinesin RNAi (fig. S4E)
kinesin-1, P33176 = target: T1, kinesin-1, P33176; assay: FLAG immunoprecipitation of synthetic cargo, immunoblot quantification (anti-KIF5B); conditions: chain shown with the change; IP: flag; hTERT RPE-1 cells; n=4; parent: est. 1.0; read off a plot
T1 chain: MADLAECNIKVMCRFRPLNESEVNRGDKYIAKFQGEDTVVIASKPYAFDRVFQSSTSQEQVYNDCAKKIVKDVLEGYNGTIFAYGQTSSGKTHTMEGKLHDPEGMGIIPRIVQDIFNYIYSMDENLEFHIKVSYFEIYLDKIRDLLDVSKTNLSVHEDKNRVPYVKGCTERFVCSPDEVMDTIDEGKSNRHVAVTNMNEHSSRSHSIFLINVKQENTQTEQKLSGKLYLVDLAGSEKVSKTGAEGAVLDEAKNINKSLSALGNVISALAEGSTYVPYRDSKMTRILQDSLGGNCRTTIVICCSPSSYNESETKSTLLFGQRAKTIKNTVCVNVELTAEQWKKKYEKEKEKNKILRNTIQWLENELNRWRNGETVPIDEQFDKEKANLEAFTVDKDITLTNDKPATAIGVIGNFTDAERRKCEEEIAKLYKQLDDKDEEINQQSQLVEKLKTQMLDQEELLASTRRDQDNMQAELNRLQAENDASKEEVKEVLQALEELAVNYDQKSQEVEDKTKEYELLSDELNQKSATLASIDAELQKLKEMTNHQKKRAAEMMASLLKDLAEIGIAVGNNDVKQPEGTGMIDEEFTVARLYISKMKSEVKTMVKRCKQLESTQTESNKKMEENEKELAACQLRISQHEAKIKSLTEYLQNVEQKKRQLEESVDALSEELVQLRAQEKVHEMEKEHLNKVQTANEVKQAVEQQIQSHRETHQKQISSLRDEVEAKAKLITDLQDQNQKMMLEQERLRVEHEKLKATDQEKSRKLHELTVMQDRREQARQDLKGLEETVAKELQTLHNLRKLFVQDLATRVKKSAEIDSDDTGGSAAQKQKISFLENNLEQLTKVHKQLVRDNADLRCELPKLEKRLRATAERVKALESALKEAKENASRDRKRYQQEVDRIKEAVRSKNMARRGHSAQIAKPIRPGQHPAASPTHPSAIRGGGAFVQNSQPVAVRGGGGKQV

fold enrichment versus TRAK2-driven synthetic cargo [1]: 20 fold
Molecule: kinesin-1 (from UniProt P33176 1-963) (natural protein)

ratio to parent (kinesin-1, P33176): 0.46
B1: TRAK2/mScarlet fusion protein (wild type), O60296 F92A; M95A (protein)
chain: MSQSQNAIFTSPTGEENLMNSNHRDSESITDVCSNEDLPEVELVSLLEEQLPQYRLKVDTLFLYENQDWTQSPHQRQHASDALSPVLAEETARYAILGTDRVEQMTKTYNDIDMVTHLLAERDRDLELAARIGQALLKRNHVLSEQNESLEEQLGQAFDQVNQLQHELCKKDELLRIVSIASEESETDSSCSTPLRFNESFSLSQGLLQLEMLQEKLKELEEENMALRSKACHIKTETVTYEEKEQQLVSDCVKELRETNAQMSRMTEELSGKSDELIRYQEELSSLLSQIVDLQHKLKEHVIEKEELKLHLQASKDAQRQLTMELHELQDRNMECLGMLHESQEEIKELRSRSGPTAHLYFSQSYGAFTGESLAAEIEGTMRKKLSLDEESSLFKQKAQQKRVFDTVRIANDTRGRSISFPALLPIPGSNRSSVIMTAKPFESGLQQTEDKSLLNQGSSSEEVAGSSQKMGQPGPSGDSDLATALHRLSLRRQNYLSEKQFFAEEWQRKIQVLADQKEGVSGCVTPTESLASLCTTQSEITDLSSASCLRGFMPEKLQIVKPLEGSQTLYHWQQLAQPNLGTILDPRPGVITKGFTQLPGDAIYHISDLEEDEEEGITFQVQQPLEVEEKLSTSKPVTGIFLPPITSAGGPVTVATANPGKCLSCTNSTFTFTTCRILHPSDITQVTPSSGFPSLSCGSSGSSSSNTAVNSPALSYRLSIGESITNRRDSTTTFSSTMSLAKLLQERGISAKVYHSPISENPLQPLPKSLAIPSTPPNSPSHSPCPSPLPFEPRVHLSENFLASRPAETFLQEMYGLRPSRNPPDVGQLKMNLVDRLKRLGIARVVKNPGAQENGRCQEAEIGPQKPDSAVYLNSGSSLLGGLRRNQSLPVIMGSFAAPVCTSSPKMGVLKED

ratio to parent (kinesin-1, P33176): 0.02
B2: TRAK1/mScarlet fusion protein (wild type), Q9UPV9 L92A; F95A (protein)
chain: MALVFQFGQPVRAQPLPGLCHGKLIRTNACDVCNSTDLPEVEIISLLEEQLPHYKLRADTIYGYDHDDWLHTPLISPDANIDLTTEQIEETAKYALLCAERVGQMTKTYNDIDAVTRLLEEKERDLELAARIGQSLLKKNKTLTERNELLEEQVEHIREEVSQLRHELSMKDELLQFYTSAAEESEPESVCSTPLKRNESSSSVQNYFHLDSLQKKLKDLEEENVVLRSEASQLKTETITYEEKEQQLVNDCVKELRDANVQIASISEELAKKTEDAARQQEEITHLLSQIVDLQKKAKACAVENEELVQHLGAAKDAQRQLTAELRELEDKYAECMEMLHEAQEELKNLRNKTMPNTTSRRYHSLGLFPMDSLAAEIEGTMRKELQLEEAESPDITHQKRVFETVRNINQVVKQRSLTPSPMNIPGSNQSSAMNSLLSSCVSTPRSSFYGSDIGNVVLDNKTNSIILETEAADLGNDERSKKPGTPGTPGSHDLETALRRLSLRRENYLSERRFFEEEQERKLQELAEKGELRSGSLTPTESIMSLGTHSRFSEFTGFSGMSFSSRSYLPEKLQIVKPLEGSATLHHWQQLAQPHLGGILDPRPGVVTKGFRTLDVDLDEVYCLNDFEEDDTGDHISLPRLATSTPVQHPETSAHHPGKCMSQTNSTFTFTTCRILHPSDELTRVTPSLNSAPTPACGSTSHLKSTPVATPCTPRRLSLAESFTNTRESTTTMSTSLGLVWLLKERGISAAVYDPQSWDRAGRGSLLHSYTPKMAVIPSTPPNSPMQTPTSSPPSFEFKCTSPPYDNFLASKPASSILREVREKNVRSSESQTDVSVSNLNLVDKVRRFGVAKVVNSGRAHVPTLTEEQGPLLCGPPGPAPALVPRGLVPEGLPLRCPTVTSAIGGLQLNSGIRRNRSFPTMVGSSMQMKAPVTLTSGILMGAKLSKQTSLR
